From the supplement of paper PMC11908140

B1: library; numbered along this chain (parent)
chain: MRKPRAAVGSGHRKQAASQEGRQKHAKNNSQAKPSACDGLARQPEEVVLQASVSSYHLFRDVAEVTAFRGSLLSWYDQEKRDLPWRRRAEDEMDLDRRAYAVWVSEVMLQQTQVATVINYYTGWMQKWPTLQDLASASLEEVNQLWAGLGYYSRGRRLQEGARKVVEELGGHMPRTAETLQQLLPGVGRYTAGAIASIAFGQATGVVDGNVARVLCRVRAIGADPSSTLVSQQLWGLAQQLVDPARPGDFNQAAMELGATVCTPQRPLCSQCPVESLCRARQRVEQEQLLASGSLSGSPDVEECAPNTGQCHLCLPPSEPWDQTLGVVNFPRKASRKPPREESSATCVLEQPGALGAQILLVQRPNSGLLAGLWEFPSVTWEPSEQLQRKALLQELQRWAGPLPATHLRHLGEVVHTFSHIKLTYQVYGLALEGQTPVTTVPPGARWLTQEEFHTAAVSTAMKKVFRVYQGQQPGTCMGSKRSQVSSPCSRKKPRMGQQVLDNFFRSHISTDAHSLNSAAQ

Variants of: B1
Test: 8OG:A repair function score (normalized; synonymous = 0, nonsense = -1) (normalized log-likelihood score); higher = more repair activity (WT-like)
Conditions: with 8OG:A DNA repair reporter (GFP) in HEK-293 MUTYH KO cells
Outline: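 MUTYH knockout HEK-293 cells carrying lentiviral MUTYH cDNA NNN codon-scan libraries were grown with 10 pg/ml doxycycline and co-transfected with mCherry and a GFP reporter of 8OG:A repair. Viable mCherry+ cells were sorted at 72 h into GFP+ (repair) and GFP− bins, with three replicates per tile, and tile amplicons were sequenced. Rosace fitness scores for each tile were turned into a normalized repair function score anchored on the synonymous and nonsense distributions. Synonymous medians were set to 0 and nonsense medians to -1, and variants below 300 counts per million at the start were dropped.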

| Variant | 8OG:A repair function score |
| --- | --- |
| D133H | -0.0208 |
| P129Y | -0.513 |
| E319L | 0.0108 |
| F68N | -1.12 |
| F68K | -0.962 |
| K127H | 0.135 |
| G70C | 0.00567 |
| T204Y | -0.127 |
| T204W | -0.109 |
| G372H | -0.297 |
| G497H | -0.0394 |
| G497A | -0.0723 |
| L289M | -0.0277 |
| P331A | -0.0508 |
| P331H | -0.439 |
| Y190R | -1.06 |
| P34T | -0.0245 |
| A147V | -0.14 |
| L361Y | -0.508 |
| L361M | 0.0584 |
| V274Y | -0.549 |
| V62Q | -0.0156 |
| L257Y | -0.76 |
| V458A | -0.667 |

| Variant | 8OG:A repair function score |
| --- | --- |
| G401W | -0.421 |
| M255F | -0.873 |
| N503R | -0.0109 |
| N503W | -0.011 |
| T324L | -0.000813 |
| G412A | -0.236 |
| V485M | 0.0202 |
| L158C | -0.573 |
| L158Q | -1.31 |
| E350I | -0.103 |
| D224C | -0.955 |
| E141R | -0.449 |
| V427D | -1.2 |
| R81M | -0.492 |
| P352V | -0.096 |
| T455H | 0.0572 |
| P244N | -0.467 |
| G353V | -0.123 |
| G353T | 0.0569 |
| G353H | -0.144 |
| G236K | 0.114 |
| V65Q | -0.0644 |
| C216W | -1 |
| S344A | 0.0466 |

| Variant | 8OG:A repair function score |
| --- | --- |
| A334D | -0.242 |
| W399E | -0.679 |
| F200P | -1.02 |
| A354D | -0.0478 |
| V142P | -0.569 |
| Q132P | 0.0126 |
| Q181L | -0.0425 |
| V230F | -0.517 |
| L241T | -0.51 |
| A67R | 0.00599 |
| A63C | -0.0141 |
| G293K | -0.0447 |
| S270I | -0.0239 |
| L325S | -0.135 |
| V53E | 0.00193 |
| P264M | -0.233 |
| G123L | 0.0662 |
| S276F | -0.0215 |
| E452D | -0.0961 |
| E452F | -0.387 |
| S153D | -0.368 |
| Q426K | 0.106 |
| Q426A | -0.0345 |
| R491V | 0.0088 |

| Variant | 8OG:A repair function score |
| --- | --- |
| E79S | -0.00165 |
| A89F | -0.0315 |
| L349T | -0.236 |
| T476K | 0.024 |
| T476W | -0.159 |
| A194G | -0.624 |
| A194T | -0.422 |
| L134Q | -1.24 |
| G309S | -0.0582 |
| P402A | -0.0823 |
| P402M | 0.138 |
| T191C | -0.351 |
| I118Y | -0.223 |
| F453D | -1.22 |
| W75A | -1.3 |
| R281Q | -0.113 |
| R281Y | -0.0264 |
| E382T | 0.196 |
| V348R | -1.43 |
| R495H | 0.00173 |
| L234W | -0.79 |
| L234G | -0.994 |
| G356L | -0.2 |
| E341L | -0.00796 |

| Variant | 8OG:A repair function score |
| --- | --- |
| R279K | -0.0521 |
| S518W | -0.0247 |
| Q111C | -0.764 |
| Q386E | -0.0345 |
| R2I | 0.124 |
| R69C | -0.33 |
| R69S | -0.0909 |
| K337G | -0.0801 |
| T346Y | -0.168 |
| A520L | -0.0269 |
| A520N | 0.0153 |
| A520F | 0.00424 |
| Y56T | -0.011 |
| V362Q | -0.414 |
| R219N | -0.877 |
| V328P | -0.507 |
| P267Q | -0.679 |
| P247T | -0.856 |
| S419F | -0.753 |
| G205I | -0.994 |
| I509S | 0.0252 |
| F250D | -1.01 |
| A345K | -0.499 |
| S296N | -0.0281 |

| Variant | 8OG:A repair function score |
| --- | --- |
| D82R | -0.0624 |
| G193C | 0.0546 |
| R163F | -0.174 |
| V301L | -0.0363 |
| N251V | -0.84 |
| A223I | -0.454 |
| A238K | -0.887 |
| T263E | -0.267 |
| Q252H | -0.873 |
| L430I | -0.29 |
| H172S | 0.0204 |
| Q78R | 0.00285 |
| V104F | -1.1 |
| H420L | -0.527 |
| V214L | -0.0688 |
| V206Q | -0.927 |
| L95P | -0.00578 |
| P474N | -0.0807 |
| A357Q | 0.125 |
| S378T | 0.295 |
| D512R | -7.7e-05 |
| N517M | 0.0171 |
| N517V | -0.00815 |
| P316A | -0.176 |

| Variant | 8OG:A repair function score |
| --- | --- |
| S507H | -0.084 |
| H312D | -0.0268 |
| V415C | 0.022 |
| V415T | -0.106 |
| A203N | -0.000873 |
| A203C | -0.101 |
| A203Q | 0.0356 |
| L448D | -0.727 |
| K164D | -0.483 |
| A101N | -0.0446 |
| Q126V | -0.0961 |
| V117T | 0.0387 |
| R482S | 0.0216 |
| K464F | -0.702 |
| K464R | -0.123 |
| S74K | -0.0253 |
| Q286N | 0.0116 |
| L58R | 0.00693 |
| P174G | -0.814 |
| G148V | -1.08 |
| T179Y | -0.146 |
| G186P | -0.924 |
| C262I | -1.12 |
